Experimental data taken from patent US20120244164A1 (published 2012).
Read-outs that look alike come from different tables or passages of the source.

Legend:
[1] = biological target: T1, recombinant human c-Met/Fc chimera (R&D systems) (human); assay: HGF-competition Alphascreen
T1 construct: R&D Systems 358-MT/CF, expressed in NS0 cells; also called hc-Met/Fc; hu c-Met/Fc

Human c-Met = Human c-Met (human, UniProt P08581 25-1390); assay: cell-based or functional assay
[2] = biological target: T1, recombinant human c-Met/Fc chimera (R&D …); assay: HGF-competition Alphascreen; remark: listed apart in the source

T1 sequence (chain, as listed by the source mutant limits assumed): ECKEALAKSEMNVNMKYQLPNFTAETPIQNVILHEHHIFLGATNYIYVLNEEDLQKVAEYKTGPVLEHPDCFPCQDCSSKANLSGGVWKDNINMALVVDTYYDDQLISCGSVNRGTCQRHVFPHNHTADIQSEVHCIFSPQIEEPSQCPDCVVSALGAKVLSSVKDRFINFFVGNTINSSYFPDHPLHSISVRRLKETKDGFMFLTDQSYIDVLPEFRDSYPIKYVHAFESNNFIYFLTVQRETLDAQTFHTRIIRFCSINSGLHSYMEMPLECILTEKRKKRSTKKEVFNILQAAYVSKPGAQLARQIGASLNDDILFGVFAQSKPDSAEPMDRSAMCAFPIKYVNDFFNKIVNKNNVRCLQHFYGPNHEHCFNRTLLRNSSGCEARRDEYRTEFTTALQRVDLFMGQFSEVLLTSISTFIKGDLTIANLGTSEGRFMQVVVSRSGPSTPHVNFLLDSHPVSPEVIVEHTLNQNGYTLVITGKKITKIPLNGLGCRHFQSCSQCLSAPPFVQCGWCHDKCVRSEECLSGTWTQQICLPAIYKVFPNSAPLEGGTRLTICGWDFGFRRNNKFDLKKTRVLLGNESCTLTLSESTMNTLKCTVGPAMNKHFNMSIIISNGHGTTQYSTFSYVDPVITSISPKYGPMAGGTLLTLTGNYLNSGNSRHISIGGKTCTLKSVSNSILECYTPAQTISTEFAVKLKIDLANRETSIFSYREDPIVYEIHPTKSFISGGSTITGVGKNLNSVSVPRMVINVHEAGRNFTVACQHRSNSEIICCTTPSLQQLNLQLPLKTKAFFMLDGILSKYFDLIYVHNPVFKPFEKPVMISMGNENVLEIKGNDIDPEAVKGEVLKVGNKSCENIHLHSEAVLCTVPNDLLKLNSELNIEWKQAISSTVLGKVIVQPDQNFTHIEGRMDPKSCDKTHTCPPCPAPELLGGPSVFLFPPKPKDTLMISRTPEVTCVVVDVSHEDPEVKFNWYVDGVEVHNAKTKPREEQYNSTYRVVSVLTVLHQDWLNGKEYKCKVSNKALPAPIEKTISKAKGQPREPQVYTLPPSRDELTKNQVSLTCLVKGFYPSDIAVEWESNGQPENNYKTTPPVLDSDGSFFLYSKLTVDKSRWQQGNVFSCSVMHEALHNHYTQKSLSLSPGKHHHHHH
Chain of Human c-Met (P08581 25-1390 limits assumed): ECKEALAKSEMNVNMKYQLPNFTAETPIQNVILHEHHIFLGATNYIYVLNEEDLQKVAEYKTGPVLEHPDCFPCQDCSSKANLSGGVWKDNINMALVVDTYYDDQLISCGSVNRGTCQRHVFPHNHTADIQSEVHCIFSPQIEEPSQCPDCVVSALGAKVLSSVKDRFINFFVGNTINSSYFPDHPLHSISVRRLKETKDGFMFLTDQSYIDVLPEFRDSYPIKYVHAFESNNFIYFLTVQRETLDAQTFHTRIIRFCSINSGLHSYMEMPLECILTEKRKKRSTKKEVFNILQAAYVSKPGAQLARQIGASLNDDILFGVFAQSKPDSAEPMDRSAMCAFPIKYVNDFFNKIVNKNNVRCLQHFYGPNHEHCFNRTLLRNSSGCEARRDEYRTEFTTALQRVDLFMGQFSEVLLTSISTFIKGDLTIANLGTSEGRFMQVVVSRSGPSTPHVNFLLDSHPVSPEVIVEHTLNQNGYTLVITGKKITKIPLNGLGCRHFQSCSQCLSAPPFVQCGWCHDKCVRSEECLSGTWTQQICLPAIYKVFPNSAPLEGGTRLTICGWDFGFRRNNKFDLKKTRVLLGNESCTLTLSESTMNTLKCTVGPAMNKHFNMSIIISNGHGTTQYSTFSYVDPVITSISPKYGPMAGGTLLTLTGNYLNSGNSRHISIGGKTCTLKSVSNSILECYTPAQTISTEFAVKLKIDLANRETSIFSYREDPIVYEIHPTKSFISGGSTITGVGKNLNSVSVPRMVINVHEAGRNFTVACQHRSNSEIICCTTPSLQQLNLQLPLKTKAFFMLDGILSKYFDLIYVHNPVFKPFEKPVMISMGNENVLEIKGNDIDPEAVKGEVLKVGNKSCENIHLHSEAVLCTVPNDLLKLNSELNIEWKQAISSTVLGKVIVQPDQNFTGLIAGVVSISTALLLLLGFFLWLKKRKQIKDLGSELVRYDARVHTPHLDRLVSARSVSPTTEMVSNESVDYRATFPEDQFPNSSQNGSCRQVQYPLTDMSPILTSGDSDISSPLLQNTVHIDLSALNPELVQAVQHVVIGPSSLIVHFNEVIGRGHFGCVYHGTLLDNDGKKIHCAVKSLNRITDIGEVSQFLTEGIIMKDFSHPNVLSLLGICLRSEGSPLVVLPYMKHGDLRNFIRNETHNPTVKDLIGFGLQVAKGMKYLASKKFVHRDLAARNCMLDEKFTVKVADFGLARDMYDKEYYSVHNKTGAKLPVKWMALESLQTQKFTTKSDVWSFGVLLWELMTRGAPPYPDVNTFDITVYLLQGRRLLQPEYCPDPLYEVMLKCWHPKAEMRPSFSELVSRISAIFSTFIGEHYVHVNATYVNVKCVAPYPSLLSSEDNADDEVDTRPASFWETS

IC50 [1] [nM] | IC50, cell-based cMet phosphorylation assay (Human c-Met) [nM] | IC50 [2] [nM] | Binder
0.78 | 79 | 0.61 | A007900184 (33H10-3xFLAG-His6) (VHH, the entry holds the tag; also called A007900184 (wt)) VHH: EVQLVESGGGLVQAGGSLRLSCAASGFTFDDYAIGWFRQAPGEEREGVSSISSTYGLTYYADSVKGRFTISSSNAKNTVYLQMNNLKPEDTAVYYCAATPIERLGLDAYEYDYWGQGTLVTVSS
18 |  |  | A007900745 (VHH, 33H10 variant; the entry holds the 3xFLAG-His6 tag) VHH: EVQLVESGGGLVQPGGSLRLSCAASGFTFDDYAIGWFRQAPGEEREGVSSISSTYGLTYYADSVKGRFTISRDNSKNTVYLQMNSLKPEDTAVYYCAATPIERLGLDAYEYDYWGQGTLVTVSS
26 |  |  | A007900743 (VHH, 33H10 variant; the entry holds the 3xFLAG-His6 tag) VHH: EVQLVESGGGLVQPGGSLRLSCAASGFTFDDYAIGWFRQAPGEEREGVSSISSTYGLTYYADSVKGRFTISRDNSKNTVYLQMNNLKPEDTAVYYCAATPIERLGLDAYEYDYWGQGTLVTVSS
0.69 |  |  | A007900738 (VHH, 33H10 variant; the entry holds the 3xFLAG-His6 tag) VHH: EVQLVESGGGLVQPGGSLRLSCAASGFTFDDYAIGWFRQAPGEEREGVSSISSTYGLTYYADSVKGRFTISSSNSKNTVYLQMNNLKPEDTAVYYCAATPIERLGLDAYEYDYWGQGTLVTVSS
2.5 |  |  | A007900746 (VHH, 33H10 variant; the entry holds the 3xFLAG-His6 tag) VHH: EVQLVESGGGLVQPGGSLRLSCAASGFTFDDYAIGWFRQAPGKEREGVSSISSTYGLTYYADSVKGRFTISSSNSKNTVYLQMNNLKPEDTAVYYCAATPIERLGLDAYEYDYWGQGTLVTVSS
3.4 |  |  | A007900749 (VHH, 33H10 variant; the entry holds the 3xFLAG-His6 tag) VHH: EVQLVESGGGLVQPGGSLRLSCAASGFTFDDYAIGWFRQAPGKEREGVSSISSTYGLTYYADSVKGRFTISSDNSKNTVYLQMNSLKPEDTAVYYCAATPIERLGLDAYEYDYWGQGTLVTVSS
 | 12.8 | 0.27 | A007901247 (VHH, 33H10 variant, 3xFLAG-His6 tagged; the entry holds the tag) VHH: EVQLVESGGGLVQPGGSLRLSCAASGFTFDDYAIGWFRQAPGKEREGVSSISSTYGLTYYADSVKGRFTISSDNSKNTVYLQMNSLRPEDTAVYYCAATPIGLIGLDAYEYDYWGQGTLVTVSS
0.58 |  |  | A007900739 (VHH, 33H10 variant; the entry holds the 3xFLAG-His6 tag) VHH: EVQLVESGGGLVQPGGSLRLSCAASGFTFDDYAIGWFRQAPGEEREGVSSISSTYGLTYYADSVKGRFTISSSNSKNTVYLQMNSLKPEDTAVYYCAATPIERLGLDAYEYDYWGQGTLVTVSS
3.5 |  |  | A007900748 (VHH, 33H10 variant; the entry holds the 3xFLAG-His6 tag) VHH: EVQLVESGGGLVQPGGSLRLSCAASGFTFDDYAIGWFRQAPGKEREGVSSISSTYGLTYYADSVKGRFTISSDNSKNTVYLQMNNLKPEDTAVYYCAATPIERLGLDAYEYDYWGQGTLVTVSS
100 |  |  | A007900753 (VHH, 33H10 variant; the entry holds the 3xFLAG-His6 tag) VHH: EVQLVESGGGLVQPGGSLRLSCAASGFTFDDYAIGWFRQAPGKEREGVSSISSTYGLTYYADSVKGRFTISRDNSKNTVYLQMNSLKPEDTAVYYCAATPIERLGLDAYEYDYWGQGTLVTVSS
 | 4.98 | 0.068 | A007901251 (VHH, 33H10 variant, 3xFLAG-His6 tagged; the entry holds the tag) VHH: EVQLVESGGGLVQPGGSLRLSCAASGFTFDDYAIGWFRQAPGKERLGVSSISSTYGLTYYADSVKGRFTISSDNSKNTVYLQMNSLRPEDTAVYYCAATPIGLIGLDAYEYDYWGQGTLVTVSS
 | 4.16 | 0.12 | A007901252 (VHH, 33H10 variant, 3xFLAG-His6 tagged; the entry holds the tag) VHH: EVQLVESGGGLVQPGGSLRLSCAASGFAFDDYAIGWFRQAPGKERLGVSSISSTYGLTYYADSVKGRFTISSDNSKNTVYLQMNSLRPEDTAVYYCAATPIGLIGLDAYEYDYWGQGTLVTVSS
31 |  |  | A007900752 (VHH, 33H10 variant; the entry holds the 3xFLAG-His6 tag) VHH: EVQLVESGGGLVQPGGSLRLSCAASGFTFDDYAIGWFRQAPGKEREGVSSISSTYGLTYYADSVKGRFTISRSNSKNTVYLQMNSLKPEDTAVYYCAATPIERLGLDAYEYDYWGQGTLVTVSS
0.85 |  |  | A007900741 (VHH, 33H10 variant; the entry holds the 3xFLAG-His6 tag) VHH: EVQLVESGGGLVQPGGSLRLSCAASGFTFDDYAIGWFRQAPGEEREGVSSISSTYGLTYYADSVKGRFTISSDNSKNTVYLQMNSLKPEDTAVYYCAATPIERLGLDAYEYDYWGQGTLVTVSS
 | 11.5 | 0.17 | A007901248 (VHH, 33H10 variant, 3xFLAG-His6 tagged; the entry holds the tag) VHH: EVQLVESGGGLVQPGGSLRLSCAASGFAFDDYAIGWFRQAPGKEREGVSSISSTYGLTYYADSVKGRFTISSDNSKNTVYLQMNSLRPEDTAVYYCAATPIGLIGLDAYEYDYWGQGTLVTVSS
42 |  |  | A007900750 (VHH, 33H10 variant; the entry holds the 3xFLAG-His6 tag) VHH: EVQLVESGGGLVQPGGSLRLSCAASGFTFDDYAIGWFRQAPGKEREGVSSISSTYGLTYYADSVKGRFTISRSNSKNTVYLQMNNLKPEDTAVYYCAATPIERLGLDAYEYDYWGQGTLVTVSS
1.1 |  |  | A007900740 (VHH, 33H10 variant; the entry holds the 3xFLAG-His6 tag) VHH: EVQLVESGGGLVQPGGSLRLSCAASGFTFDDYAIGWFRQAPGEEREGVSSISSTYGLTYYADSVKGRFTISSDNSKNTVYLQMNNLKPEDTAVYYCAATPIERLGLDAYEYDYWGQGTLVTVSS
100 |  |  | A007900751 (VHH, 33H10 variant; the entry holds the 3xFLAG-His6 tag) VHH: EVQLVESGGGLVQPGGSLRLSCAASGFTFDDYAIGWFRQAPGKEREGVSSISSTYGLTYYADSVKGRFTISRDNSKNTVYLQMNNLKPEDTAVYYCAATPIERLGLDAYEYDYWGQGTLVTVSS
2.5 |  |  | A007900747 (VHH, 33H10 variant; the entry holds the 3xFLAG-His6 tag) VHH: EVQLVESGGGLVQPGGSLRLSCAASGFTFDDYAIGWFRQAPGKEREGVSSISSTYGLTYYADSVKGRFTISSSNSKNTVYLQMNSLKPEDTAVYYCAATPIERLGLDAYEYDYWGQGTLVTVSS
8.3 |  |  | A007900742 (VHH, 33H10 variant; the entry holds the 3xFLAG-His6 tag) VHH: EVQLVESGGGLVQPGGSLRLSCAASGFTFDDYAIGWFRQAPGEEREGVSSISSTYGLTYYADSVKGRFTISRSNSKNTVYLQMNNLKPEDTAVYYCAATPIERLGLDAYEYDYWGQGTLVTVSS
 | 4.84 | 0.071 | A007901253 (VHH, 33H10 variant, 3xFLAG-His6 tagged; the entry holds the tag) VHH: EVQLVESGGGLVQPGGSLRLSCAASGFTFDDYAIGWFRQAPGEEREGVSSISSTYGLTYYADPVKGRFTISSDNSKNTVYLQMNSLRPEDTAVYYCAATPIGLIGLDAYEYDYWGQGTLVTVSS
11 |  |  | A007900744 (VHH, 33H10 variant; the entry holds the 3xFLAG-His6 tag) VHH: VQLVESGGGLVQPGGSLRLSCAASGFTFDDYAIGWFRQAPGEEREGVSSISSTYGLTYYADSVKGRFTISRSNSKNTVYLQMNSLKPEDTAVYYCAATPIERLGLDAYEYDYWGQGTLVTVSS
